Laboratory results taken from PMC11403483 (The Journal of Biological Chemistry, 2024).

How the values were obtained:
[1] = biological target: recombinant PSG1 (pregnancy-specific glycoprotein 1) (human, UniProt P11464 35-419, complex N-linked glycans); assay: SPR
native PSG1 = native PSG1 (human (endogenous in serum of pregnant …, UniProt P11464 35-419)); assay: SPR
Sequence of native PSG1 (human (P11464 35-419): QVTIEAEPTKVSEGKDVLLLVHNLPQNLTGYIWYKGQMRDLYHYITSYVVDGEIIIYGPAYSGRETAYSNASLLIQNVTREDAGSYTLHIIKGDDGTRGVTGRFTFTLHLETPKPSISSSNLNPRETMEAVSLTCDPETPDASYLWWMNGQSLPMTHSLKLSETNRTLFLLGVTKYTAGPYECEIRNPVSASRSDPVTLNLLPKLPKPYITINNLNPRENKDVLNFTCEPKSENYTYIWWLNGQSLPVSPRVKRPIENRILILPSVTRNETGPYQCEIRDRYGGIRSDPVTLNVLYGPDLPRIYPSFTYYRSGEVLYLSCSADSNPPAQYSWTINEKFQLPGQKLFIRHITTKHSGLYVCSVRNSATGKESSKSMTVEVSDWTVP

Sequence of recombinant PSG1 (pregnancy-specific glycoprotein 1) (P11464 35-419): as above

Kd [1]: 21.6 nM | koff [1]: 0.00156 s⁻¹ | Kd (native PSG1): 40.3 nM | koff (native PSG1): 0.0016 s⁻¹ | kon (native PSG1): 39000 M⁻¹ s⁻¹
B1: recombinant human galectin 9 (natural protein, UniProt O00182-2 1-323, looked up)
chain: MAFSGSQAPYLSPAVPFSGTIQGGLQDGLQITVNGTVLSSSGTRFAVNFQTGFSGNDIAFHFNPRFEDGGYVVCNTRQNGSWGPEERKTHMPFQKGMPFDLCFLVQSSDFKVMVNGILFVQYFHRVPFHRVDTISVNGSVQLSYISFQPPGVWPANPAPITQTVIHTVQSAPGQMFSTPAIPPMMYPHPAYPMPFITTILGGLYPSKSILLSGTVLPSAQRFHINLCSGNHIAFHLNPRFDENAVVRNTQIDNSWGSEERSLPRKMPFVRGQSFSVWILCEAHCLKVAVDGQHLFEYYHRLRNLPTINRLEVGGDIQLTHVQT
